Drawing on PMC4475061 (2015), this text covers Kd for three molecules.

Where a chain is given by its changes, count along the chain named. Names and notes keep the numbering of the source. Some results are limits rather than exact numbers.

The target of experiment [1] is IST1 MIMs peptide (residues 316–366), fluorescently labeled (human, Oregon Green 488 maleimide on the non-native N-terminal cysteine). The experiment is described as follows: FP.
Experiment [2] deals with IST1 MIM2 peptide (residues 316–343). Briefly: FP.

B1: ULK3(MIT)2 V338D (domain or fragment)
chain: GPHMSGESLGRATALVVQAVKKDQEGDSAAALSLYCKALDFFVPALHYEVDAQRKEAIKAKVGQYDSRAEELKAIVSSSNQALLRQGTSARDLLREMARDKPRLLAALEVASAAMAKEEAAGGEQDALDLYQHSLGELLLLLAAEPPGRRRELLHTEVQNLMARAEYLKEQVKMRES
In turn, B1 showed a Kd in experiment [1] of 0.32 µM.

B2: ULK3(MIT)2 (residues 277–449) (domain or fragment)
chain: B1 chain with D66V
Regarding B2, the Kd in experiment [2] was above 300 µM.

B3: ULK3(MIT)2 M434D (domain or fragment)
chain: B1 chain with D66V, M162D
Molecule B3 had a Kd in experiment [1] of 24.3 µM.
